From patent publication US5574007A, “Polypeptide capable of interacting with thrombin” (Asahi Kasei Kogyo Kabushiki Kaisha, priority 1990, dated 1996)
Positions of bridges follow the written chain, without caps; N, C: chain ends. Residues, ends and D or L forms follow the SMILES beside them.

Tests used:
[1] = biological target: binding of thrombin to thrombomodulin (Homo sapiens, UniProt P00734); assay: Activity of synthetic peptides to inhibit the binding of thrombin to thrombomodulin (Dixon plot); details: D123Asp-coated plate, crosslinked synthetic peptide
Procedure: The acitvity of each of the synthetic peptides to inhibit the binding of thrombin to thrombomodulin is determined by the following method. D123Asp purified in Example 1-(4)-(b) is diluted with 0.1M sodium bicarbonate buffer (pH 9.2) so that the final concentration of D123Asp becomes 1.5 μg/ml. 100 μl of the diluent is dispensed to each well of a flat-bottomed 96 well-microtiter plate for ELISA. The plate is allowed to stand for 3 hours, and then each well is washed with 0.1M sodium bicarbonate buffer (pH 9.2). 150 μl of 50 mM Tris-HCl buffer (pH 7.5) containing 0.1M NaCl and 1% BSA is dispensed to each well, and the plate is allowed to stand for 2 hours so that each well is subjected to blocking. To each well of the plate is added a solution obtained by reacting thrombin (0 to 0.4 μg/μl), which has been diluted with a washing solution {50 mM Tris-HCl buffer (pH 7.5) containing 0.5% BSA and 0.05% Tween-20}, with various concentrations of the synthetic peptide solutions at 37° C. for 30 minutes, and a reaction is conducted at room temperature for 1 hour. The plate is washed again with the above-mentioned washing solution. To each well of the plate is added 100 μl of 50 mM Tris-HCl buffer (pH 8.0) containing 0.1M NaCl, in which 200 μM H-D-Phe-Pip-Arg-pNA (Kabi Virum, Sweden, catalog No. S2238) has been dissolved, to thereby liberate pNA (paranitroanilin). A few hours later, the absorbance of the liberated pNA is measured at a wavelength of 410 nm. To determine the inhibition constant (Ki) of each of the synthetic peptides, 100/v in which v represents the thrombin activity (expressed in %) at the time when a peptide having a predetermined concentration is added, assuming the thrombin activity in the absence of a peptide as 100%, is plotted in rectangular coordinates against the concentration of the peptide to-obtain a graph (Dixon plot). The inhibition constant (Ki) is defined as the reading of the intersection of the plotted line with the abscissa.

[2] = biological target: T1, thrombin-catalyzed activation of GDPC (protein C having no Gla domain) (Homo sapiens, UniProt P00734); assay: Same assay with protein C having no Gla domain (GDPC) instead of protein C; assay type: biochemical; details: calcium ion concentrations of 0 to 5 mM
T1 construct: 3 μl of thrombin (manufactured and sold by Sigma Chemical Company, catalog No. T-6759, 20 ng/μl); purchased Sigma Chemical Company T-6759
Procedure: (§1) With respect to the polypeptide solutions (0.4 μg/ml) purified and quantitated in Example 1-(5)-(d), the activity of polypeptides to promote the thrombin-catalyzed activation of protein C is measured according to the method described in Example 1-(3). The CaCl2 concentration of 10×Assay buffer is adjusted so that the activities at calcium ion concentrations of 0 to 5 mM are determined. Also, with respect to protein C having no Gla domain (hereinafter referred to as "GDPC") which is prepared by chymotrypsin treatment according to the method of N. L. Esmon [J. Biol. Chem. Vol. 258, pp. 5548-5553 (1983)]and which is used instead of protein C, the activity measurement is carried out within the same range of calcium concentration.

[3] = biological target: T2, thrombin-catalyzed activation of protein C (Homo sapiens, UniProt P00734); assay: Assay of the activity to promote the thrombin-catalyzed activation of protein C (Example 1-(3), fluorogenic substrate Boc-Leu-Ser-Thr-Arg-MCA); assay type: biochemical, bovine; set-up: 3 μl of thrombin (manufactured and sold by Sigma Chemical Company, catalog No. T-6759, 20 ng/μl); purchased Sigma Chemical Company T-6759; details: for activity to promote the thrombin-catalyzed activation of protein C (in words): purified polypeptide from COS-1, calcium ion concentrations of 0 to 5 mM
Procedure: 5 μl of the supernatant of the culture of COS-1 cells is transformed by each of plasmids pSV2TMD7 and pSV2TMD8, 3 μl of thrombin (manufactured and sold by Sigma Chemical Company, catalog No. T-6759, 20 ng/μl), 5 μl of 10×Assay Buffer containing 1M NaCl, 30 mM CaCl2, 1% calf serum albumin and 0.5M tris-HCl buffer (pH 8.5) and 29.5 μl of distilled water are mixed together and allowed to stand at 37° C. for 5 minutes, followed by the addition of 7.5 μl protein C (derived from bovine, 0.2 μg/μl) to the mixture. The reaction is conducted at 37° C. for 30 minutes, and terminated by adding 6.25 μl of a stop solution (20 mM tris-HCl buffer, pH7.5, containing 100 mM NaCl, 0.3A280 anti-thrombin III and 100 μg/ml heparin).
The activity of activated protein C is measured by first adding 10 μl of Boc-Leu-Ser-Thr-Arg-MCA (manufactured and sold by Peptide Institute, The Foundation (Japan), 5 mg/ml), 5 μl of 5M CsCl and 495 μl of a substrate reaction buffer (50 mM tris-HCl buffer containing 100 mM NaCl (pH 8.5)), next allowing the reaction to proceed at 37° C. for 20 minutes, then terminating the reaction by adding 55 μl of acetic acid, and finally measuring the concentration of liberated AMC ([…]) by means of a spectrofluorometer (model RF-540, manufactured and sold by Shimadzu Corporation, Japan) at an excitation wavelength of 380 nm and an emission wavelength of 440 nm. The obtained fluorescence intensity is compared with the fluorescence intensity of a solution having a known AMC concentration to determine the amount of the liberated AMC. The value obtained by deducting from this amount the amount of AMC in the case where an aqueous solution containing no polypeptide of the present invention is added, represents the activity of the polypeptide to promote the thrombin-catalyzed activation of protein C. The activity to produce 1 nM of activated protein C per ml of reaction mixture and per minute is defined as 1 u (unit).
as §1

[4] = biological target: T2, thrombin-catalyzed activation of protein C; assay: Activated protein C formation against reaction time with purified polypeptide (Example 4-(6)); assay type: biochemical
Procedure: To 0.02M Tris-HCl buffer (pH 8.5) containing 0.1M NaCl, 0.5 mM CaCl2 and 10 mg/ml BSA are added 50 μg/ml protein C, 5 nM thrombin and 5 nM of each of the purified polypeptides of the present invention, and reacted at 37° C. To each of the reaction mixtures are added 300 μg/ml antithrombin III (manufactured and sold by Sigma Chemical Company, U.S.A.) and 5 mM EDTA to terminate the reaction. Then, the amount of the activated protein C produced by the reaction is determined by the method described in Example 1-(3) in which a synthetic substrate is used.

[5] = biological target: thrombin-catalyzed conversion of fibrinogen to fibrin (Homo sapiens, UniProt P00734); assay: Anticoagulating activity: clotting time of a fibrinogen solution; assay type: biochemical; details: polypeptide purified from Acremonium chrysogenum (Example 6(4))
Procedure: The activity of each of the polypeptides of the present invention to inhibit the thrombin-catalyzed conversion of fibrinogen to fibrin so as to inhibit blood coagulation, is determined by measuring clotting time using Coagulometer KC-10A (manufactured and sold by Heinrich Amelung A.G., Germany). Illustratively stated, to 0.05M Tris-HCl buffer (pH 7.5) containing 5 mM CaCl2 and 0.1M NaCl is added 3.0 μg of fibrinogen (Fraction I, manufactured and sold by Sigma Chemical Company, U.S.A.). To the resultant mixture is added 0 to 50 nM of each of the purified polypeptides of the present invention. Then, 10 nM thrombin is added to the mixture in such an amount that the total amount of the mixture becomes 0.4 ml, and then the coagulation time of the mixture is measured.

[6] = test system: thrombin-catalyzed platelet aggregation; assay: Platelet aggregation-inhibiting activity (Platelet Rich Plasma, HEMA TRACER IV); assay type: cell-based; details: polypeptide purified from Acremonium chrysogenum (Example 6(4))
Procedure: The activity of each of the polypeptides of the present invention to inhibit the thrombin-catalyzed platelet aggregation is evaluated using platelet aggregation measuring apparatus HEMA TRACER IV (manufactured and sold by NIKO Bioscience, Inc., Japan). Measurement is carried out according to the manual attached thereto. When 40 μl of a 20 NIH unit/ml thrombin solution (manufactured and sold by SIGMA Chemical Co., U.S.A., T 6759) is added to 180 μl of a Platelet Rich Plasma (PRP) platelet solution (3×10^5 cells/μl) and incubated, the aggregation of platelets occurs. […] The aggregation of platelets is determined on the basis of the transparency, assuming the transparency of Platelet Poor Plasma (PPP) solution as 100%. The ratio of platelet aggregation is plotted against the incubation time (0 min: the time when thrombin or a mixture of thrombin and one of the polypeptides is added to the PRP solution). It is confirmed that the platelet aggregation is inhibited when one of the polypeptides of the present invention is added.

CSCC[C@H](N)C(=O)N[C@@H](Cc1ccccc1)C(=O)N[C@H]1CSSC[C@@H](C(=O)N[C@@H](CC(=O)O)C(=O)O)NC(=O)[C@H](CC(=O)O)NC(=O)[C@H](C)NC(=O)[C@@H]2CCCN2C(=O)[C@H](C)NC(=O)[C@H](C)NC(=O)[C@H]([C@@H](C)O)NC(=O)[C@H](CCC(N)=O)NC(=O)[C@H](CC(N)=O)NC1=O [Polypeptide A, Met-Phe-Cys-Asn-Gln-Thr-Ala-Ala-Pro-Ala-Asp-Cys-Asp] (H-MFCNQTAAPADCD-OH; disulfide 3-12)
Inhibition constant (Ki) [1]: no inhibiting activity

C[C@H](N)C(=O)N[C@H]1CSSC[C@@H](C(=O)N[C@@H](CCC(=O)O)C(=O)O)NC(=O)[C@H](CO)NC(=O)[C@H](C)NC(=O)[C@H](CCC(N)=O)NC(=O)[C@H]([C@@H](C)O)NC(=O)[C@H](CC(N)=O)NC(=O)[C@@H]2CCCN2C(=O)[C@H](CC(=O)O)NC(=O)[C@H](C)NC(=O)[C@H](CC(=O)O)NC(=O)[C@H](C)NC(=O)[C@@H]2CCCN2C1=O [Polypeptide B, Ala-Cys-Pro-Ala-Asp-Ala-Asp-Pro-Asn-Thr-Gln-Ala-Ser-Cys-Glu] (H-ACPADADPNTQASCE-OH; disulfide 2-14)
Inhibition constant (Ki) [1]: no inhibiting activity

CC[C@H](C)[C@H](NC(=O)[C@H](CC(=O)O)NC(=O)[C@@H](NC(=O)[C@@H]1CSSC[C@H](NC(=O)[C@@H](N)CCC(=O)O)C(=O)N2CCC[C@H]2C(=O)N[C@@H](CCC(=O)O)C(=O)NCC(=O)N[C@@H](Cc2ccc(O)cc2)C(=O)N[C@@H]([C@@H](C)CC)C(=O)N[C@@H](CC(C)C)C(=O)N[C@@H](CC(=O)O)C(=O)N[C@@H](CC(=O)O)C(=O)NCC(=O)N[C@@H](Cc2ccccc2)C(=O)N[C@@H]([C@@H](C)CC)C(=O)N1)[C@@H](C)O)C(=O)N[C@@H](CC(=O)O)C(=O)N[C@@H](CCC(=O)O)C(=O)O [Polypeptide C, Glu-Cys-Pro-Glu-Gly-Tyr-Ile-Leu-Asp-Asp-Gly-Phe-Ile-Cys-Thr-Asp-Ile-Asp-Glu] (H-ECPEGYILDDGFICTDIDE-OH; disulfide 2-14)
Ki ([1]; read-out: Inhibition constant (Ki)): 95 µM

D123Ala: polypeptide up to the 516th position of human thrombomodulin wherein the 367th Asp is changed to Ala (pSV2TMM1)
activity in the activation of GDPC (in words) [2]: low activity | activity to promote the thrombin-catalyzed activation of protein C (in words) [3]: low activity

D123Glu: polypeptide up to the 516th position of human thrombomodulin wherein the 367th Asp is changed to Glu (pSV2TMM2)
activity relative to that of D123Asp ([3]; activation of protein C): 1.2 times | activity to promote the thrombin-catalyzed activation of protein C (in words) [3]: activity similar to that of D123Asp

E456Glu: 367th to 480th amino acid residues of human thrombomodulin in which the 367th Asp is replaced by Glu (pSV2TMM3)
amount of activated protein C with reaction time (in words) ([4]; 5 nM polypeptide, 5 nM thrombin, 50 μg/ml protein C, 37° C., polypeptide from COS-1 or CHO cells): increased with the lapse of reaction time | amount of activated protein C with reaction time (in words) ([4]; polypeptide purified from Acremonium chrysogenum strains D71 and M31 (Example 6(4))): increased with the lapse of reaction time | clotting time of fibrinogen solution against amount of polypeptide (in words) [5]: the longer the clotting time | thrombin-catalyzed platelet aggregation (in words) [6]: inhibited | activity relative to that of E456Asp ([3]; activation of protein C): 1.3 times
